The values below come from PMC13198613.

The test concerns the target N1-MPP (recombinant neuraminidase: N1 globular head domain from A/Michigan/45/2015 (H1N1) fused to the measles virus phosphoprotein tetramerization domain, with hexahistidine tag) (measles virus | influenza A virus A/Michigan/45/2015 (H1N1)). In words: SEC; […], pH 7.5, 0.4 mL/min, room temperature; […].

Take “N1-MPP (recombinant neuraminidase: N1 globular head domain from A/Michigan/45/2015 (H1N1) fused to the measles virus phosphoprotein tetramerization domain, with hexahistidine tag) (enzyme)”: the stoichiometry N (in general, the number of molecules, sites or subunits per partner or assembly) amounted to 4.
